{
  "source": "paper doi:10.1101/2022.09.14.507982",
  "molecular_target": "F-actin (filamentous actin from rabbit muscle) (rabbit) (UniProt P68135)",
  "assay": "co-sedimentation",
  "data": [
    {"substance": "Ig3 domain of palladin (domain or fragment)", "values": [
      {"measurement": "Kd", "value": 3.42, "unit": "µM"}
    ]}
  ]
}
